These results are taken from PMC11969024 (2025).

First the molecules themselves.
B1: peptide HD2 (from tick evasin EVA4) / CCL4 (biotinylated, synthetic) (parent complex)
chain 1: EEDDYTAYAPLTCYFT
chain 2: APMGSDPPTACCFSYTARKLPRNFVVDYYETSSLCSQPAVVFQTKRSKQVCADPSESWVQEYVYDLELN
B2: peptide HD2 (from tick evasin EVA4) / CXCL11 (biotinylated, synthetic) (parent complex)
chain 1: EEDDYTAYAPLTCYFT
chain 2: FPMFKRGRCLCIGPGVKAVKVADIEKASIMYPSNNCDKIEVIITLKENKGQRCLNPKSKQARLIIKKVERKNF

The first assay covers variants of B1.
With chain 1 A9V, the enrichment was -8.22 log2 (difference from the parental peptide).
Same read-out and setting: the same measure for chain 1 A9M: -3.9 log2 (difference from the parental peptide); for chain 1 E2P: -3.03 log2 (difference from the parental peptide).
As to chain 1 E2N, the enrichment was -2.2 log2 (difference from the parental peptide).
Take chain 1 E2V: the enrichment is -1.26 log2 (difference from the parental peptide).
Same read-out and setting: the result for chain 1 E2Q reads -1.88 log2 (difference from the parental peptide); that for chain 1 E2H, -2.04 log2 (difference from the parental peptide); that for chain 1 E2W, -1.18 log2 (difference from the parental peptide).
Still for that read-out and setting: the result for chain 1 E2M reads -2.17 log2 (difference from the parental peptide); that for chain 1 Y14V, -1.84 log2 (difference from the parental peptide).
On the same count and under the same terms, the result for chain 1 Y14C reads -4.56 log2 (difference from the parental peptide).
Take chain 1 Y14I: the enrichment is -1.56 log2 (difference from the parental peptide).
Still for that read-out and setting: the same measure for chain 1 Y14T: -1.65 log2 (difference from the parental peptide); for chain 1 A7E: 2.68 log2 (difference from the parental peptide); for chain 1 A7Y: -1.83 log2 (difference from the parental peptide).
Same read-out and setting: the result for chain 1 A7H reads -0.536 log2 (difference from the parental peptide); that for chain 1 A7C, -7.41 log2 (difference from the parental peptide).
Still for that read-out and setting: the same measure for chain 1 A7R: 0.829 log2 (difference from the parental peptide); for chain 1 A7N: 0.608 log2 (difference from the parental peptide); for chain 1 A7S: 1.01 log2 (difference from the parental peptide).
Take chain 1 D4R: the enrichment was -5.66 log2 (difference from the parental peptide).
For chain 1 D4Q, the enrichment was -3.05 log2 (difference from the parental peptide).
As to chain 1 D4T, the enrichment is -4.12 log2 (difference from the parental peptide).
chain 1 D4W: the enrichment was -2.51 log2 (difference from the parental peptide).
The same measure, in the same setting: the result for chain 1 D4F reads -3.98 log2 (difference from the parental peptide); that for chain 1 D4M, -3.8 log2 (difference from the parental peptide).
The same measure, in the same setting: the same measure for chain 1 D4E: 0.269 log2 (difference from the parental peptide); for chain 1 D4I: -3.77 log2 (difference from the parental peptide); for chain 1 D4H: -5.75 log2 (difference from the parental peptide).
On the same count and under the same terms, the result for chain 1 D3N reads -2.11 log2 (difference from the parental peptide).
Consider chain 1 D3F, for which the enrichment was -2.01 log2 (difference from the parental peptide).
The same measure, in the same setting: the result for chain 1 D3Q reads -3.56 log2 (difference from the parental peptide); that for chain 1 D3M, -2.83 log2 (difference from the parental peptide).
Still for that read-out and setting: the result for chain 1 D3L reads -3.31 log2 (difference from the parental peptide); that for chain 1 D3E, 1.01 log2 (difference from the parental peptide).
The same measure, in the same setting: the result for chain 1 D3A reads -2.51 log2 (difference from the parental peptide); that for chain 1 D3G, -2.44 log2 (difference from the parental peptide); that for chain 1 D3V, -3.36 log2 (difference from the parental peptide).
For the variant chain 1 D3W, the enrichment was -2.32 log2 (difference from the parental peptide).
Same read-out and setting: the result for chain 1 Y8V reads -2.68 log2 (difference from the parental peptide); that for chain 1 Y8H, -0.426 log2 (difference from the parental peptide); that for chain 1 Y8D, -2.3 log2 (difference from the parental peptide).
The same measure, in the same setting: the result for chain 1 C13D reads -8.73 log2 (difference from the parental peptide).
On the same count and under the same terms, the same measure for chain 1 C13Q: -7.94 log2 (difference from the parental peptide).
chain 1 C13F: the enrichment is -8.2 log2 (difference from the parental peptide).
Still for that read-out and setting: the result for chain 1 C13V reads -2.03 log2 (difference from the parental peptide); that for chain 1 C13S, -4.84 log2 (difference from the parental peptide).
On the same count and under the same terms, the result for chain 1 C13W reads -6.63 log2 (difference from the parental peptide).
With chain 1 T16Y, the enrichment is -1.43 log2 (difference from the parental peptide).
Same read-out and setting: the result for chain 1 T16G reads 1.59 log2 (difference from the parental peptide); that for chain 1 T16K, 0.843 log2 (difference from the parental peptide); that for chain 1 T16S, 1.17 log2 (difference from the parental peptide).
The same measure, in the same setting: the result for chain 1 T16V reads -0.281 log2 (difference from the parental peptide); that for chain 1 T16I, -0.308 log2 (difference from the parental peptide); that for chain 1 T16N, 0.632 log2 (difference from the parental peptide).
The same measure, in the same setting: the result for chain 1 T16Q reads 1.49 log2 (difference from the parental peptide); that for chain 1 L11R, 1.19 log2 (difference from the parental peptide).
For chain 1 L11D, the enrichment was -7.07 log2 (difference from the parental peptide).
For the variant chain 1 L11A, the enrichment is 0.289 log2 (difference from the parental peptide).
On the same count and under the same terms, the result for chain 1 L11W reads -0.0529 log2 (difference from the parental peptide); that for chain 1 L11M, 2.23 log2 (difference from the parental peptide).
chain 1 L11C: the enrichment is 0.222 log2 (difference from the parental peptide).
Still for that read-out and setting: the result for chain 1 P10W reads -7.42 log2 (difference from the parental peptide); that for chain 1 P10C, -7.71 log2 (difference from the parental peptide).
Still for that read-out and setting: the same measure for chain 1 P10F: -7.39 log2 (difference from the parental peptide).
On the same count and under the same terms, the same measure for chain 1 P10L: -9.07 log2 (difference from the parental peptide); for chain 1 P10S: -7.76 log2 (difference from the parental peptide); for chain 1 P10V: -9.95 log2 (difference from the parental peptide).
Consider chain 1 P10A, for which the enrichment is -7.28 log2 (difference from the parental peptide).
Still for that read-out and setting: the result for chain 1 T6H reads -0.386 log2 (difference from the parental peptide); that for chain 1 T6D, 3.6 log2 (difference from the parental peptide).
On to chain 1 T6M, for which the enrichment is -1.2 log2 (difference from the parental peptide).
On to chain 1 T6F, for which the enrichment is -4.46 log2 (difference from the parental peptide).
For chain 1 T6I, the enrichment is -5.92 log2 (difference from the parental peptide).
Regarding chain 1 T6K, the enrichment is -1.03 log2 (difference from the parental peptide).
In the case of chain 1 T6P, the enrichment is -5.36 log2 (difference from the parental peptide).
Regarding chain 1 T6Y, the enrichment is -1.54 log2 (difference from the parental peptide).
Still for that read-out and setting: the same measure for chain 1 T6A: 1.9 log2 (difference from the parental peptide); for chain 1 E1K: -2.64 log2 (difference from the parental peptide); for chain 1 E1T: -0.507 log2 (difference from the parental peptide).
On the same count and under the same terms, the result for chain 1 E1D reads 1.99 log2 (difference from the parental peptide); that for chain 1 E1W, -3.15 log2 (difference from the parental peptide).
Same read-out and setting: the result for chain 1 E1M reads -0.205 log2 (difference from the parental peptide).
Consider chain 1 E1G, for which the enrichment is -0.0396 log2 (difference from the parental peptide).
On the same count and under the same terms, the same measure for chain 1 E1L: -1.55 log2 (difference from the parental peptide); for chain 1 E1N: -0.413 log2 (difference from the parental peptide).
On the same count and under the same terms, the same measure for chain 1 E1H: -1.57 log2 (difference from the parental peptide).
On the same count and under the same terms, the result for chain 1 E1F reads -2.68 log2 (difference from the parental peptide); that for chain 1 T12R, -1.17 log2 (difference from the parental peptide); that for chain 1 T12S, 0.347 log2 (difference from the parental peptide).
Turning to chain 1 T12C, the enrichment was -4.88 log2 (difference from the parental peptide).
Regarding chain 1 T12L, the enrichment was 3.18 log2 (difference from the parental peptide).
In the case of chain 1 T12K, the enrichment was -2.25 log2 (difference from the parental peptide).
With chain 1 T12F, the enrichment is 2.42 log2 (difference from the parental peptide).
The same measure, in the same setting: the result for chain 1 T12A reads 0.00832 log2 (difference from the parental peptide).
On the same count and under the same terms, the result for chain 1 T12M reads 2.93 log2 (difference from the parental peptide).
Still for that read-out and setting: the same measure for chain 1 T12P: 0.2 log2 (difference from the parental peptide); for chain 1 T12Q: 1 log2 (difference from the parental peptide); for chain 1 T12G: -4.11 log2 (difference from the parental peptide).
As to chain 1 F15D, the enrichment is -2.26 log2 (difference from the parental peptide).
Still for that read-out and setting: the result for chain 1 F15P reads 1.32 log2 (difference from the parental peptide); that for chain 1 F15C, -4.83 log2 (difference from the parental peptide).
Still for that read-out and setting: the result for chain 1 F15W reads -1.58 log2 (difference from the parental peptide).
Same read-out and setting: the same measure for chain 1 F15G: -2.79 log2 (difference from the parental peptide); for chain 1 F15K: 0.923 log2 (difference from the parental peptide); for chain 1 F15M: 1.08 log2 (difference from the parental peptide).
With chain 1 F15V, the enrichment was 1.4 log2 (difference from the parental peptide).
On the same count and under the same terms, the same measure for chain 1 F15A: 1.49 log2 (difference from the parental peptide); for chain 1 Y5L: -1.57 log2 (difference from the parental peptide); for chain 1 Y5D: -5.03 log2 (difference from the parental peptide).
Consider chain 1 Y5I, for which the enrichment was -5.08 log2 (difference from the parental peptide).
Same read-out and setting: the result for chain 1 Y5W reads 1.96 log2 (difference from the parental peptide).

Another assay covers variants of B2.
As for chain 1 F15M, the enrichment was -0.451 log2 (difference from the parental peptide).
Same read-out and setting: the result for chain 1 F15T reads -0.0704 log2 (difference from the parental peptide).
Regarding chain 1 E1P, the enrichment was -4.68 log2 (difference from the parental peptide).
The same measure, in the same setting: the same measure for chain 1 E1Y: 1.69 log2 (difference from the parental peptide); for chain 1 E1N: -4.13 log2 (difference from the parental peptide); for chain 1 T6H: -0.342 log2 (difference from the parental peptide).
chain 1 T6I: the enrichment was -0.429 log2 (difference from the parental peptide).
On the same count and under the same terms, the result for chain 1 T6S reads 1.57 log2 (difference from the parental peptide); that for chain 1 T6R, 0.535 log2 (difference from the parental peptide).
For the variant chain 1 A9R, the enrichment was -1.01 log2 (difference from the parental peptide).
On the same count and under the same terms, the same measure for chain 1 D4M: -5.76 log2 (difference from the parental peptide).
For the variant chain 1 D4W, the enrichment is -2.72 log2 (difference from the parental peptide).
Same read-out and setting: the result for chain 1 C13F reads -5.76 log2 (difference from the parental peptide); that for chain 1 C13V, -1.39 log2 (difference from the parental peptide).
Still for that read-out and setting: the result for chain 1 Y8F reads 0.146 log2 (difference from the parental peptide); that for chain 1 Y8N, 0.757 log2 (difference from the parental peptide).
Same read-out and setting: the same measure for chain 1 Y8S: -2.63 log2 (difference from the parental peptide); for chain 1 Y5W: 5.39 log2 (difference from the parental peptide).
As for chain 1 Y5N, the enrichment was -4.84 log2 (difference from the parental peptide).
On the same count and under the same terms, the same measure for chain 1 Y5I: -1.31 log2 (difference from the parental peptide).
As to chain 1 L11C, the enrichment is -2.08 log2 (difference from the parental peptide).
The same measure, in the same setting: the result for chain 1 L11T reads -1.48 log2 (difference from the parental peptide).
Consider chain 1 T16L, for which the enrichment is 0.663 log2 (difference from the parental peptide).
In the case of chain 1 T16Y, the enrichment was -3.28 log2 (difference from the parental peptide).
The same measure, in the same setting: the result for chain 1 T16M reads -0.985 log2 (difference from the parental peptide); that for chain 1 T16P, 0.438 log2 (difference from the parental peptide); that for chain 1 T12F, -2.38 log2 (difference from the parental peptide).
Same read-out and setting: the same measure for chain 1 T12Q: -3.76 log2 (difference from the parental peptide); for chain 1 T12E: -0.922 log2 (difference from the parental peptide).
On to chain 1 E2T, for which the enrichment was -4.37 log2 (difference from the parental peptide).
Take chain 1 E2M: the enrichment was 0.915 log2 (difference from the parental peptide).
The same measure, in the same setting: the result for chain 1 A7L reads 0.413 log2 (difference from the parental peptide).
The same measure, in the same setting: the result for chain 1 A7N reads 1.13 log2 (difference from the parental peptide); that for chain 1 A7E, -0.399 log2 (difference from the parental peptide).
Still for that read-out and setting: the result for chain 1 A7M reads 1.69 log2 (difference from the parental peptide); that for chain 1 D3S, -4.11 log2 (difference from the parental peptide).
For chain 1 D3N, the enrichment is -0.358 log2 (difference from the parental peptide).
Same read-out and setting: the same measure for chain 1 Y14T: -5.08 log2 (difference from the parental peptide).
